Target: NHR2-mH (TAT- and NLS-free NHR2 protein)
Assay: cross-linking; 20 μM protein in PBS, 0.01% glutaraldehyde, room temperature, various times; SDS-PAGE, coomassie staining

stoichiometry N: 4
Substance: NHR2-mH (TAT- and NLS-free NHR2 protein) (domain or fragment)

— paper PMC3707205
